Experimental data as given in the supplement of paper PMC9112550, “Optimization of the antimicrobial peptide Bac7 by deep mutational scanning” (BMC Biology, 2022).

Each sequence was assayed on Escherichia coli TOP10 (assay: shrunken log2 fold change of peptide-encoding DNA abundance (4.5 h post-induction vs induction); higher = less antimicrobial activity (less host growth inhibition)). Conditions: time post-induction: 4.5 h; library: site-saturation at positions 5, 18, 19, 20.
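Also: peptides expressed intracellularly from a pBAD plasmid library in pooled LB shake-flask culture, induced with 0.3% L-arabinose, DNA abundance read by NGS, three biological replicates, DESeq2 with apeglm shrinkage.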

Sequence | shrunken log2 fold change
RRIRKRPPRLPRPRPRPGDAPRP | 0.571
RRIRKRPPRLPRPRPRPGDQPRP | -0.00987
RRIRKRPPRLPRPRPRPGDVPRP | 0.278
RRIRKRPPRLPRPRPRPGEDPRP | 0.0621
RRIRKRPPRLPRPRPRPGEQPRP | -0.0435
RRIRKRPPRLPRPRPRPGEVPRP | 0.268
RRIRKRPPRLPRPRPRPGFAPRP | 0.718
RRIRKRPPRLPRPRPRPGFDPRP | 0.98
RRIRKRPPRLPRPRPRPGHCPRP | 0.00694
RRIRKRPPRLPRPRPRPGKMPRP | -0.0991
RRIRKRPPRLPRPRPRPGKQPRP | 0.599
RRIRKRPPRLPRPRPRPGLFPRP | 0.556
RRIRKRPPRLPRPRPRPGNCPRP | 0.0147
RRIRKRPPRLPRPRPRPGPQPRP | 0.561
RRIRKRPPRLPRPRPRPGQWPRP | 0.181
RRIRKRPPRLPRPRPRPGRWPRP | 0.622
RRIRKRPPRLPRPRPRPGSDPRP | 0.737
RRIRKRPPRLPRPRPRPGTQPRP | 0.114
RRIRKRPPRLPRPRPRPGVLPRP | 0.293
RRIRKRPPRLPRPRPRPGWSPRP | 3
RRIRKRPPRLPRPRPRPGYGPRP | 0.13
RRIRKRPPRLPRPRPRPHALPRP | 0.154
RRIRKRPPRLPRPRPRPHCAPRP | -0.00229
RRIRKRPPRLPRPRPRPHCDPRP | 0.266
RRIRKRPPRLPRPRPRPHCMPRP | 0.159

Sequence | shrunken log2 fold change
RRIRKRPPRLPRPRPRPHDCPRP | 0.108
RRIRKRPPRLPRPRPRPHEFPRP | -0.0156
RRIRKRPPRLPRPRPRPHFSPRP | -0.0531
RRIRKRPPRLPRPRPRPHGFPRP | 0.056
RRIRKRPPRLPRPRPRPHGGPRP | -0.0161
RRIRKRPPRLPRPRPRPHGRPRP | 0.239
RRIRKRPPRLPRPRPRPHHQPRP | 0.00598
RRIRKRPPRLPRPRPRPHIVPRP | -0.0154
RRIRKRPPRLPRPRPRPHKLPRP | 0.00078
RRIRKRPPRLPRPRPRPHLGPRP | -0.00957
RRIRKRPPRLPRPRPRPHLPPRP | 0.0692
RRIRKRPPRLPRPRPRPHMRPRP | 0.0568
RRIRKRPPRLPRPRPRPHQAPRP | -0.137
RRIRKRPPRLPRPRPRPHRDPRP | -0.136
RRIRKRPPRLPRPRPRPHREPRP | -0.0175
RRIRKRPPRLPRPRPRPHRKPRP | -0.0475
RRIRKRPPRLPRPRPRPHSDPRP | 0.0765
RRIRKRPPRLPRPRPRPHTEPRP | 0.0507
RRIRKRPPRLPRPRPRPHWFPRP | 0.096
RRIRKRPPRLPRPRPRPHWLPRP | 0.148
RRIRKRPPRLPRPRPRPHWMPRP | 0.0937
RRIRKRPPRLPRPRPRPHYPPRP | -0.16
RRIRKRPPRLPRPRPRPHYVPRP | -0.0482
RRIRKRPPRLPRPRPRPIAAPRP | 0.317
RRIRKRPPRLPRPRPRPIAPPRP | 0.718

Sequence | shrunken log2 fold change
RRIRKRPPRLPRPRPRPICIPRP | 0.163
RRIRKRPPRLPRPRPRPICPPRP | -0.122
RRIRKRPPRLPRPRPRPIFIPRP | -0.173
RRIRKRPPRLPRPRPRPIFQPRP | 0.266
RRIRKRPPRLPRPRPRPIFYPRP | -0.0532
RRIRKRPPRLPRPRPRPIHTPRP | 0.101
RRIRKRPPRLPRPRPRPIILPRP | -0.11
RRIRKRPPRLPRPRPRPILFPRP | -0.0861
RRIRKRPPRLPRPRPRPILSPRP | 0.00626
RRIRKRPPRLPRPRPRPILWPRP | 0.149
RRIRKRPPRLPRPRPRPIPCPRP | 0.276
RRIRKRPPRLPRPRPRPIPDPRP | 0.2
RRIRKRPPRLPRPRPRPIPSPRP | 0.422
RRIRKRPPRLPRPRPRPIQSPRP | -0.0332
RRIRKRPPRLPRPRPRPIREPRP | 0.057
RRIRKRPPRLPRPRPRPIRYPRP | -0.118
RRIRKRPPRLPRPRPRPITIPRP | -0.165
RRIRKRPPRLPRPRPRPIVIPRP | -0.0175
RRIRKRPPRLPRPRPRPIVTPRP | 0.102
RRIRKRPPRLPRPRPRPIVVPRP | 0.0157
RRIRKRPPRLPRPRPRPKAWPRP | -0.0159
RRIRKRPPRLPRPRPRPKCHPRP | 0.182
RRIRKRPPRLPRPRPRPKCLPRP | 0.118
RRIRKRPPRLPRPRPRPKECPRP | 0.121
RRIRKRPPRLPRPRPRPKENPRP | 0.189

Sequence | shrunken log2 fold change
RRIRKRPPRLPRPRPRPKEPPRP | 0.074
RRIRKRPPRLPRPRPRPKGTPRP | 0.00171
RRIRKRPPRLPRPRPRPKILPRP | 0.362
RRIRKRPPRLPRPRPRPKKEPRP | 0.00375
RRIRKRPPRLPRPRPRPKKIPRP | 0.431
RRIRKRPPRLPRPRPRPKLKPRP | 0.585
RRIRKRPPRLPRPRPRPKMLPRP | 0.185
RRIRKRPPRLPRPRPRPKQPPRP | -0.0354
RRIRKRPPRLPRPRPRPKTLPRP | 0.239
RRIRKRPPRLPRPRPRPKTRPRP | 0.444
RRIRKRPPRLPRPRPRPKVHPRP | 0.243
RRIRKRPPRLPRPRPRPKVNPRP | 0.0581
RRIRKRPPRLPRPRPRPKWRPRP | 0.887
RRIRKRPPRLPRPRPRPKYEPRP | 0.057
RRIRKRPPRLPRPRPRPKYSPRP | -0.13
RRIRKRPPRLPRPRPRPLDYPRP | -0.202
RRIRKRPPRLPRPRPRPLEEPRP | 1.76
RRIRKRPPRLPRPRPRPLERPRP | 0.529
RRIRKRPPRLPRPRPRPLFAPRP | 0.594
RRIRKRPPRLPRPRPRPLFRPRP | 0.696
RRIRKRPPRLPRPRPRPLKGPRP | -0.022
RRIRKRPPRLPRPRPRPLKVPRP | 0.237
RRIRKRPPRLPRPRPRPLMMPRP | 0.207
RRIRKRPPRLPRPRPRPLNTPRP | 0.143
RRIRKRPPRLPRPRPRPLQIPRP | 0.0389

Sequence | shrunken log2 fold change
RRIRKRPPRLPRPRPRPLRPPRP | 1.01
RRIRKRPPRLPRPRPRPLSTPRP | 0.025
RRIRKRPPRLPRPRPRPLTHPRP | 0.0737
RRIRKRPPRLPRPRPRPLTKPRP | 0.457
RRIRKRPPRLPRPRPRPLTRPRP | 0.31
RRIRKRPPRLPRPRPRPLVGPRP | 0.0773
RRIRKRPPRLPRPRPRPLVPPRP | 0.516
RRIRKRPPRLPRPRPRPLWIPRP | 0.134
RRIRKRPPRLPRPRPRPMAGPRP | 0.0722
RRIRKRPPRLPRPRPRPMAKPRP | 0.545
RRIRKRPPRLPRPRPRPMDFPRP | -0.0018
RRIRKRPPRLPRPRPRPMDRPRP | 0.0586
RRIRKRPPRLPRPRPRPMDSPRP | -0.0874
RRIRKRPPRLPRPRPRPMFPPRP | -0.187
RRIRKRPPRLPRPRPRPMHIPRP | 0.078
RRIRKRPPRLPRPRPRPMHQPRP | 0.003
RRIRKRPPRLPRPRPRPMIWPRP | -0.00177
RRIRKRPPRLPRPRPRPMKFPRP | -0.0265
RRIRKRPPRLPRPRPRPMKRPRP | 0.138
RRIRKRPPRLPRPRPRPMLIPRP | 0.0347
RRIRKRPPRLPRPRPRPMMTPRP | 0.452
RRIRKRPPRLPRPRPRPMPKPRP | 0.421
RRIRKRPPRLPRPRPRPMQGPRP | -0.00992
RRIRKRPPRLPRPRPRPMQNPRP | 0.282
RRIRKRPPRLPRPRPRPMRAPRP | 1.23

Sequence | shrunken log2 fold change
RRIRKRPPRLPRPRPRPMRKPRP | 1.44
RRIRKRPPRLPRPRPRPMRVPRP | 0.848
RRIRKRPPRLPRPRPRPMSPPRP | -0.0332
RRIRKRPPRLPRPRPRPMTDPRP | 0.103
RRIRKRPPRLPRPRPRPMTKPRP | 0.397
RRIRKRPPRLPRPRPRPMVKPRP | 0.427
RRIRKRPPRLPRPRPRPMWEPRP | 0.214
RRIRKRPPRLPRPRPRPMWNPRP | 0.232
RRIRKRPPRLPRPRPRPMYWPRP | -0.111
RRIRKRPPRLPRPRPRPMYYPRP | -0.148
RRIRKRPPRLPRPRPRPNAWPRP | 0.0867
RRIRKRPPRLPRPRPRPNAYPRP | -0.082
RRIRKRPPRLPRPRPRPNDYPRP | -0.115
RRIRKRPPRLPRPRPRPNFIPRP | -0.144
RRIRKRPPRLPRPRPRPNHMPRP | -0.106
RRIRKRPPRLPRPRPRPNILPRP | -0.193
RRIRKRPPRLPRPRPRPNIRPRP | -0.0456
RRIRKRPPRLPRPRPRPNKEPRP | -0.0272
RRIRKRPPRLPRPRPRPNKKPRP | -0.279
RRIRKRPPRLPRPRPRPNKSPRP | 0.0234
RRIRKRPPRLPRPRPRPNLEPRP | 0.185
RRIRKRPPRLPRPRPRPNLHPRP | -0.184
RRIRKRPPRLPRPRPRPNNIPRP | -0.477
RRIRKRPPRLPRPRPRPNPLPRP | 0.0246
RRIRKRPPRLPRPRPRPNRCPRP | 0.0393
